The nature of this series: background-corrected fluorescence of 3'-dye-labeled ssDNA relative to brightest sequence (3'-GCGCG) (fraction); higher = brighter dye fluorescence (less quenching). A digest of the protocol:
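Each of 1024 permuted pentamers was synthesized as single-stranded DNA on glass slides by light-directed phosphoramidite chemistry, with a 3' Cy3 or Cy5 dye alongside. Arrays were scanned at 532 or 635 nm before and after overnight deprotection with ethylenediamine/ethanol. Values average 10 features per array across at least 3 syntheses. The fluorescence readout, with unlabeled-oligo background removed, is given relative to the brightest sequence.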

± gives the standard error.

“TTTTTTCATGATCATGCTCATTTTTTTTTTTTTTTGCGAG [GAGCG]”: the background-corrected fluorescence reads like this: (dye: Cy3 (3' terminal)) 0.608 ± 0.03; (dye: Cy5 (3' terminal)) 0.51 ± 0.085.
Taken in the same sequence, the figures for “TTTTTTCATGATCATGCTGATTTTTTTTTTTTTTTGCGAC [CAGCG]” were 0.518 ± 0.026 and 0.394 ± 0.023.
Regarding “TTTTTTCATGATCATGCTGCTTTTTTTTTTTTTTTGCGAA [AAGCG]”, the background-corrected fluorescence stood at 0.666 ± 0.028 (dye: Cy3 (3' terminal)) and 0.525 ± 0.028 (dye: Cy5 (3' terminal)).
Taken in the same sequence, the figures for “TTTTTTCATGATGAGCAGCATTTTTTTTTTTTTTTGCCTT [TTCCG]” were 0.489 ± 0.031 and 0.367 ± 0.035.
Taken in the same sequence, the figures for “TTTTTTCATGATGAGCATCATTTTTTTTTTTTTTTGCCTG [GTCCG]” were 0.481 ± 0.028 and 0.35 ± 0.021.
In the same order, the values of “TTTTTTCATGATGAGCATGATTTTTTTTTTTTTTTGCCTC [CTCCG]” are 0.354 ± 0.016 and 0.286 ± 0.06.
On to “TTTTTTCATGATGAGCATGCTTTTTTTTTTTTTTTGCCTA [ATCCG]”, for which the background-corrected fluorescence runs as follows: (dye: Cy3 (3' terminal)) 0.493 ± 0.016; (dye: Cy5 (3' terminal)) 0.366 ± 0.039.
In the same order, the values of “TTTTTTCATGATGATCAGCATTTTTTTTTTTTTTTGCCGT” are 0.651 ± 0.025 and 0.487 ± 0.022.
For “TTTTTTCATGATGATCATCATTTTTTTTTTTTTTTGCCGG [GGCCG]”, the background-corrected fluorescence by setting is: (dye: Cy3 (3' terminal)) 0.665 ± 0.025; (dye: Cy5 (3' terminal)) 0.564 ± 0.072.
Taken in the same sequence, the figures for “TTTTTTCATGATGATCATGATTTTTTTTTTTTTTTGCCGC [CGCCG]” were 0.549 ± 0.017 and 0.434 ± 0.033.
In the same order, the values of “TTTTTTCATGATGATCATGCTTTTTTTTTTTTTTTGCCGA [AGCCG]” are 0.621 ± 0.024 and 0.547 ± 0.034.
Taken in the same sequence, the figures for “TTTTTTCATGATGATGAGCATTTTTTTTTTTTTTTGCCCT [TCCCG]” were 0.449 ± 0.021 and 0.329 ± 0.019.
As for “TTTTTTCATGATGATGATCATTTTTTTTTTTTTTTGCCCG”, the background-corrected fluorescence runs as follows: (dye: Cy3 (3' terminal)) 0.488 ± 0.0067; (dye: Cy5 (3' terminal)) 0.394 ± 0.045.
Taken in the same sequence, the figures for “TTTTTTCATGATGATGATGATTTTTTTTTTTTTTTGCCCC [CCCCG]” were 0.32 ± 0.038 and 0.272 ± 0.012.
On to “TTTTTTCATGATGATGATGCTTTTTTTTTTTTTTTGCCCA [ACCCG]”, for which the background-corrected fluorescence reads like this: (dye: Cy3 (3' terminal)) 0.479 ± 0.026; (dye: Cy5 (3' terminal)) 0.389 ± 0.058.
Taken in the same sequence, the figures for “TTTTTTCATGATGATGCGCATTTTTTTTTTTTTTTGCCAT [TACCG]” were 0.516 ± 0.048 and 0.404 ± 0.029.
Taken in the same sequence, the figures for “TTTTTTCATGATGATGCTCATTTTTTTTTTTTTTTGCCAG [GACCG]” were 0.519 ± 0.015 and 0.384 ± 0.031.
For the sequence “TTTTTTCATGATGATGCTGATTTTTTTTTTTTTTTGCCAC [CACCG]”, the background-corrected fluorescence by setting is: (dye: Cy3 (3' terminal)) 0.393 ± 0.022; (dye: Cy5 (3' terminal)) 0.299 ± 0.015.
Regarding “TTTTTTCATGATGATGCTGCTTTTTTTTTTTTTTTGCCAA [AACCG]”, the background-corrected fluorescence reads like this: (dye: Cy3 (3' terminal)) 0.504 ± 0.034; (dye: Cy5 (3' terminal)) 0.427 ± 0.041.
In the same order, the values of “TTTTTTCATGATGCGCAGCATTTTTTTTTTTTTTTGCATT [TTACG]” are 0.514 ± 0.018 and 0.395 ± 0.019.
Taken in the same sequence, the figures for “TTTTTTCATGATGCGCATCATTTTTTTTTTTTTTTGCATG [GTACG]” were 0.508 ± 0.023 and 0.385 ± 0.023.
In the same order, the values of “TTTTTTCATGATGCGCATGATTTTTTTTTTTTTTTGCATC [CTACG]” are 0.441 ± 0.025 and 0.288 ± 0.026.
On to “TTTTTTCATGATGCGCATGCTTTTTTTTTTTTTTTGCATA [ATACG]”, for which the background-corrected fluorescence by setting is: (dye: Cy3 (3' terminal)) 0.574 ± 0.02; (dye: Cy5 (3' terminal)) 0.431 ± 0.024.
In the same order, the values of “TTTTTTCATGATGCTCAGCATTTTTTTTTTTTTTTGCAGT [TGACG]” are 0.607 ± 0.021 and 0.51 ± 0.055.
Taken in the same sequence, the figures for “TTTTTTCATGATGCTCATCATTTTTTTTTTTTTTTGCAGG [GGACG]” were 0.642 ± 0.025 and 0.516 ± 0.039.
Taken in the same sequence, the figures for “TTTTTTCATGATGCTCATGATTTTTTTTTTTTTTTGCAGC [CGACG]” were 0.508 ± 0.0059 and 0.402 ± 0.045.
Take “TTTTTTCATGATGCTCATGCTTTTTTTTTTTTTTTGCAGA [AGACG]”: the background-corrected fluorescence by setting is: (dye: Cy3 (3' terminal)) 0.682 ± 0.017; (dye: Cy5 (3' terminal)) 0.552 ± 0.035.
In the same order, the values of “TTTTTTCATGATGCTGAGCATTTTTTTTTTTTTTTGCACT [TCACG]” are 0.482 ± 0.048 and 0.339 ± 0.024.
Consider “TTTTTTCATGATGCTGATCATTTTTTTTTTTTTTTGCACG”, for which the background-corrected fluorescence reads like this: (dye: Cy3 (3' terminal)) 0.548 ± 0.028; (dye: Cy5 (3' terminal)) 0.383 ± 0.035.

For the origin of these results see the supplement of paper PMC9428881.
